According to the supplement of paper PMC6755084:

B1: F1*; the commonest letter at each place (parent)
chain: GAGACCGCAACTGAAAAGTTGTTATCACTTGTCGTAAGACACTTTGGATGGGTTGAAGTTCTGCACGTAGAAGCAAAAGGC
B2: F1*; a variant is named by its letters at N, in order (parent)
chain: GAGACCGCAACTGAAAAGTTGTTATCNNNNNNNNAANNNNNTTNGNNGGGTTGAAGTTCTGCACGTAGAAGCAAAAGGC

Variants of: B1
Experiment: fraction ligated after 30 min (ligated reads / total reads); higher = more ligase activity
Conditions: with F1*sub RNA substrate (template-directed ligation), 42 °C
Experimental: (§1)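 Chip-synthesised pool of F1* ligase ribozyme variants (all single and double substitutions, single, double and triple deletions in the catalytic core and GAA bulge, plus designed variants) was transcribed with T7 and reacted as a pool with excess substrate F1*sub for 30 min at 42 C in 50 mM EPPS pH 8.5, 25 mM MgCl2. Ligated and unligated bands were separated by PAGE, barcoded by RT and deep sequenced; fraction ligated = ligated reads / total reads per variant, relative activity = FL / FL of wild type (0.826). Sequences are the DNA template of the ribozyme.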

Row | Variant | fraction ligated
1 | A24C A57G | 0.633
2 | T23G G50T | 0.728
3 | T23G G50A | 0.633
4 | T23G G50C | 0.401
5 | T23G A24G | 0.091
6 | T23G A24T | 0.794
7 | T23G A24C | 0.773
8 | T23A A57C | 0.805
9 | T23A A57G | 0.818
10 | T23A A57T | 0.813
11 | T23G T45G | 0.523
12 | T23G T45A | 0.795
13 | T23G T45C | 0.781
14 | T23A G34A | 0.814
15 | T23A G34C | 0.813
16 | T23A G34T | 0.812
17 | T23A A36G | 0.847
18 | T23A A36T | 0.838
19 | T23A A36C | 0.826
20 | T23C T35A | 0.845
21 | T23C T35C | 0.818
22 | T23C T35G | 0.83
23 | T23A T44A | 0.819
24 | T23A T44G | 0.801

Row | Variant | fraction ligated
25 | T23A T44C | 0.784
26 | A24C | 0.747
27 | T23C A48G | 0.696
28 | T23C A48C | 0.697
29 | T23C A48T | 0.0663
30 | T23G A57C | 0.779
31 | T23G A57G | 0.819
32 | T23G A57T | 0.812
33 | T23G T43G | 0.821
34 | T23G T43A | 0.811
35 | T23G T43C | 0.747
36 | T23A T29C | 0.797
37 | T23A T29A | 0.826
38 | T23A T29G | 0.82
39 | T23A A27T | 0.794
40 | T23A A27C | 0.82
41 | T23A A27G | 0.794
42 | T23G G38T | 0.81
43 | T23G G38C | 0.808
44 | T23G G38A | 0.803
45 | A24C A48G | 0.614
46 | A24C A48C | 0.186
47 | A24C A48T | 0.0426
48 | T23G G31T | 0.868

Row | Variant | fraction ligated
49 | T23G G31A | 0.849
50 | T23G G31C | 0.849
51 | T23A T43A | 0.803
52 | T23A T43G | 0.81
53 | T23A T43C | 0.783
54 | T23C C33G | 0.819
55 | T23C C33A | 0.786
56 | T23C C33T | 0.839
57 | T23C T29A | 0.82
58 | T23C T29G | 0.766
59 | T23C T29C | 0.779
60 | T23C A56T | 0.802
61 | T23C A56G | 0.698
62 | T23C A56C | 0.518
63 | T23A G31C | 0.779
64 | T23A G31A | 0.816
65 | T23A G31T | 0.789
66 | T23C A24T | 0.501
67 | T23C A24C | 0.73
68 | T23C A24G | 0.794
69 | T23A A39T | 0.794
70 | T23A A39G | 0.819
71 | T23A A39C | 0.789
72 | A24C A56T | 0.0488

Row | Variant | fraction ligated
73 | A24C A56C | 0.0226
74 | A24C A56G | 0.0302
75 | T23G G46T | 0.759
76 | T23G G46A | 0.809
77 | T23G G46C | 0.803
78 | T23G G47A | 0.79
79 | T23G G47T | 0.346
80 | T23G G47C | 0.0263
81 | T23A A41C | 0.757
82 | T23A A41T | 0.807
83 | T23A A41G | 0.765
84 | T23C T45G | 0.027
85 | T23C T45A | 0.266
86 | T23C T45C | 0.208
87 | T23C T32A | 0.821
88 | T23C T32G | 0.827
89 | T23C T32C | 0.788
90 | T23G C26T | 0.82
91 | T23G C26G | 0.74
92 | T23G C26A | 0.789
93 | T23C C26A | 0.371
94 | T23C C26T | 0.779
95 | T23C C26G | 0.136
96 | T23A T49C | 0.731

Row | Variant | fraction ligated
97 | T23A T49G | 0.827
98 | T23A T49A | 0.791
99 | A24C A37C | 0.716
100 | A24C A37T | 0.754
101 | A24C A37G | 0.626
102 | T23A C40G | 0.838
103 | T23A C40A | 0.815
104 | T23A C40T | 0.833
105 | T23A A48C | 0.727
106 | T23A A48T | 0.68
107 | T23A A48G | 0.596
108 | T23G C33T | 0.893
109 | T23G C33G | 0.848
110 | T23G C33A | 0.866
111 | T23C A39G | 0.831
112 | T23C A39C | 0.788
113 | T23C A39T | 0.803
114 | A24C C26A | 0.417
115 | A24C C26T | 0.0218
116 | A24C C26G | 0.419
117 | T23C T44G | 0.779
118 | T23C T44A | 0.817
119 | T23C T44C | 0.8
120 | T23G T32G | 0.842

Row | Variant | fraction ligated
121 | T23G T32A | 0.858
122 | T23G T32C | 0.75
123 | T23A T25C | 0.762
124 | T23A T25G | 0.737
125 | T23A T25A | 0.652
126 | T23G A36C | 0.882
127 | T23G A36T | 0.841
128 | T23G A36G | 0.885
129 | T23G T25G | 0.738
130 | T23G T25A | 0.78
131 | T23G T25C | 0.781
132 | T23C G50C | 0.258
133 | T23C G50T | 0.782
134 | T23C G50A | 0.632
135 | T23C G47A | 0.806
136 | T23C G47C | 0.0373
137 | T23C G47T | 0.0952
138 | T23C G38C | 0.802
139 | T23C G38T | 0.803
140 | T23C G38A | 0.815
141 | T23A T32C | 0.771
142 | T23A T32A | 0.859
143 | T23A T32G | 0.829
144 | T23C T25A | 0.582

Row | Variant | fraction ligated
145 | T23C T25C | 0.782
146 | T23C T25G | 0.672
147 | T23G C42A | 0.835
148 | T23G C42T | 0.838
149 | T23G C42G | 0.829
150 | T23G T29C | 0.784
151 | T23G T29A | 0.824
152 | T23G T29G | 0.797
153 | T23C A41G | 0.784
154 | T23C A41T | 0.808
155 | T23C A41C | 0.783
156 | T23G A41G | 0.746
157 | T23G A41T | 0.792
158 | T23G A41C | 0.727
159 | T23G C28A | 0.789
160 | T23G C28T | 0.782
161 | T23G C28G | 0.791
162 | T23G T44A | 0.842
163 | T23G T44G | 0.86
164 | T23G T44C | 0.802

Variants of: B2
Experiment: as above
Conditions: with F1*sub RNA substrate (template-directed ligation), 42 °C
Experimental: as §1

Row | Variant | fraction ligated
165 | ACTTTCGTGACATGAT | 0.832
166 | ACTTGTGTGACACTGT | 0.0697
167 | ACTTGTCGGACACTGA | 0.15
